Legend:
Conditions in all cases: remark: other sources report otherwise
[1] = molecular target: alpha-synuclein fibrils, P37840; assay: SPR, captured mAb
[2] = molecular target: monomeric alpha-synuclein, P37840; assay: SPR, captured mAb
[3] = molecular target: alpha-synuclein fibrils, P37840; assay: SPR, captured mAb; alpha-synuclein fibrils
[4] = molecular target: monomeric alpha-synuclein, P37840; assay: SPR, captured mAb; alpha-synuclein monomers

Row | Binder | Kd [1] | koff [1] | kon [1] | Kd [2] | koff [2] | kon [2] | Kd [3] | Kd [4]
1 | ACI-7067-1108B11-Ab2 (antibody, V domains shown) VH: EVQLVESGGGLVQPKGSLKLSCAASGFTFNTYAMHWVRQAPGKGLEWVARIRSKGSNYATNYADSVKDRFTISRDDSQSMLYLQMNNLKTEDTAMYYCVRGHGSSYFSYWGQGTLVTVSA VL: QIVLTQSPAIMSASPGERITMTCSANSSVTYMHWYQQKSGTSPKRWIYDTSNLASGVPARFSGSGSGTSYSLTISSMEAEDAATYYCQQWKSHPPTFGAGTKLELK | 18.6 nM | 0.00205 s⁻¹ | 251000 M⁻¹ s⁻¹ | 8.1 nM | 0.00154 s⁻¹ | 191000 M⁻¹ s⁻¹ |  | 
2 | ACI-8033-4F3-Ab1 (antibody, V domains shown) VH: EVQLQQSGPELVKPGASVKISCKASGYTFTDYYMNWVKQSHGKSLEWIGDINPNTGTNSYNQKFKGRASLTVDKFSSAAYMELRSLTSEDSAVYYCARTGYGDPISSYYYALDYWGQGTSVTVSS VL: DIVMSQSPSSLAVSAGEKVTMSCKSSQSLLNSRTRKNYLAWYQQKPGQSPKLLIYWASTRESGVPDRFTGSGSGTDFTLTISSVQAEDLAVYYCKQSYNLWTFGGGTKLEIK | 0.05 nM | 2.24e-07 s⁻¹ | 4500 M⁻¹ s⁻¹ | 1.7 nM | 0.00016 s⁻¹ | 97000 M⁻¹ s⁻¹ |  | 
3 | ACI-8033-17F5-Ab1 (antibody, V domains shown) VH: EVQLQQSGPELVKPGASVKISCKASGYTFTDYFMNWVKQSHGKSLEWIGDINPNIDVTNYNQKFKGKATLTVDKSSSTAYMELRSLTSEDSAVYYCARGRDYAMDFWGQGTSVTVSS VL: DIVMSQSPSSLAVSAGEKVTMSCKSSQSLLNSRTRKNYLAWYQQKPGQSPKLLIYWASTRESGVPDRFTGSGSGTDFTLTISSVQAEDLAVYYCKQSYDLWTFGGGTKLEIK | 8.7 nM | 0.00012 s⁻¹ | 13700 M⁻¹ s⁻¹ | 2.4 nM | 0.000232 s⁻¹ | 96600 M⁻¹ s⁻¹ |  | 
4 | ACI-7089-4418F6-Ab1 (antibody, V domains shown) VH: QVQLQQSGAELARPGASVKVSCKASGYTFTSSGISWLKHRTGQGLEWIGDIYPRSGNTYYNEKFKDKATLTADKSSSTAYMELRSLTSEDSAVYFCSSGNYWGQGTTLTVSS VL: DIVITQDDLSNPVTSGESVSISCRSSKSLLYKDGKTYLNWFLQRPGQSPQLLIYLMSTRASGVSDRFSGSGSGTDFTLEISRVKAEDVGVYYCQQLLEYPLTFGAGTKLELK | 0.04 nM | 1.14e-05 s⁻¹ | 272000 M⁻¹ s⁻¹ | 0.1 nM | 9.25e-06 s⁻¹ | 81800 M⁻¹ s⁻¹ |  | 
5 | ACI-7079-2501B11-Ab3 (antibody, V domains shown) VH: QVQLQQSGPELVKPGASVKISCKASGYAFSSFWMNWMKQRPGKGLEWIGRIYPGDGDAHYNGEFKGRATLTADKSSSTAYMQLSSLTSEDSAVYFCARKGDFYGSNYDYWGQGTTLTVSS VL: QAVVTQESALTTSPGETVTLTCRSSTGAVTTSNYANWVQEKPDHLFTGLIGGTNNRAPGVPARFSGSLIGDKAALTITGAQTEDEAIYFCALWYSNHLVFGGGTRLTVL | 31.8 nM | 0.000347 s⁻¹ | 10900 M⁻¹ s⁻¹ | 2.4 nM | 0.000335 s⁻¹ | 141000 M⁻¹ s⁻¹ |  | 
6 | ACI-8033-18C11-Ab1 (antibody, V domains shown) VH: QVQLQQPGAELVKPGASVKMSCKAAGYTFSSYWITWVRQRPGQGLDWIGDIYPGGGVTNYNEKFKTKATLTVDTSSSTAYMQLSSLTSEDSAVYYCATAQTTFAYWGQGTLVTVSA VL: DVLMTQTPLSLPVSLGDQASISCRSSQNIVHNNGNTYLEWYLQKPGQSPKLLIYKVSNRFSGVPDRFSGSGSGTDFTLKISRVEAEDLGVYYCFQGSHVPRTFGGGTKLEIK | 30.4 nM | 0.000251 s⁻¹ | 8270 M⁻¹ s⁻¹ | 1.8 nM | 0.000263 s⁻¹ | 143000 M⁻¹ s⁻¹ |  | 
7 | ACI-7067-1111B12-Ab2 (antibody, V domains shown) VH: QVQLLQPGTALVMPGASVKLSCKASGYTFTTYWMHWVKQRPGQGLEWIGNINPINGGSNYNEKFKSKASLTVDKSSSTAYMQLSSLTSEDSAVYYCVIAMDYWGQGTSVTVSS VL: DIQMTQSPSSLSASLGERVSLTCRASQDIGISLNWFQQEPDGTIKRLIYATSSLDSGVPKRFSGNRSGSDYSLTISSLESEDFADYYCLQFASSPLTFGAGTKLELK | 39.2 nM | 0.00101 s⁻¹ | 26300 M⁻¹ s⁻¹ | 8.1 nM | 0.0014 s⁻¹ | 172000 M⁻¹ s⁻¹ |  | 
8 | ACI-7067-1116F2-Ab1 (antibody, V domains shown) VH: DVQLQESGPGFVKPSQSLSLTCSVTGYSITRGFYWNWIRQFPGNKLEWMGYISDDGNSNYNPSLKNRISITRDTFKNQVFLRLNSVTTEDTATYYCTRGDLLWGQGTTLTVSS VL: not shown | 55.1 nM | 0.000458 s⁻¹ | 8300 M⁻¹ s⁻¹ | 4.9 nM | 0.000232 s⁻¹ | 47000 M⁻¹ s⁻¹ |  | 
9 | ACI-8033-19A2-Ab1 (antibody, V domains shown) VH: EVQLVESGGGLVQPKGSLKLSCAASGFSFNTYAMNWVRQAPGKGLEWVARIRSKSNNYATYYVDSVKDRFTISRDDSESMLYLQMNNLKTEDTALYYCVSESAYWGQGTLVTVSA VL: DVVMTQTPLSLPVSLGDQASISCRSSQSLVHSNGNTYLYWYLQKPGQSPKLLIYKVSNRLSGVPDRFSGSGSGTDFTLKISRVEAEDLGVYFCSQSTHVPFTFGSGTKLEIK | 6.7 nM | 0.000119 s⁻¹ | 17700 M⁻¹ s⁻¹ | 6.2 nM | 0.0828 s⁻¹ | 1.33e+07 M⁻¹ s⁻¹ |  | 
10 | ACI-7067-1108H1-Ab1 (antibody, V domains shown) VH: EVKLVESGGGLVQPGGSMKLSCTASGFTFSDAWMNWVRQSPEKGLEWVAEIRNKAHNHATNYAESVKGRFTISGDDSKSSVYLQMNNLRAEDTGIYYCTIYSFWGQGTLVTVSA VL: SIVMTQTPKFLLVSAGDRVTITCKASQSVTNYVAWYHQKPGQSPKLLIYSASNRYSGVPDRFTGSGYGTDFTFTINTVQTEDLAVYFCQQDYRIPYTFGGGTKLEIK | 14.3 nM | 0.00118 s⁻¹ | 271000 M⁻¹ s⁻¹ | 4.4 nM | 0.000565 s⁻¹ | 131000 M⁻¹ s⁻¹ |  | 
11 | ACI-7079-2503C6-Ab1 (antibody, V domains shown) VH: DVQLQESGPGLVKPSQSLSLTCSVTGYSITSGYYWNWIRLFPGNKLEWLGYINYDGSNNFNPSLKNRISITRDTSKNQFFLKLNSVTSEDTATYFCLRGDWDWGQGTLVTVSA VL: not shown |  |  |  |  | 0.00012 s⁻¹ | 40500 M⁻¹ s⁻¹ |  | 3 nM

Second part, the binder after the results:

Row | Kd [1] | koff [1] | kon [1] | Kd [2] | koff [2] | kon [2] | Kd [3] | Kd [4] | Binder
12 | 8.8 nM | 0.00587 s⁻¹ | 667000 M⁻¹ s⁻¹ | 6.4 nM | 0.000992 s⁻¹ | 154000 M⁻¹ s⁻¹ |  |  | ACI-7089-4409F1-Ab1 (antibody, V domains shown) VH: DVQLQESGPGLVKPSQSLSLTCSVTGYSITRGYYWNWIRQFPGNKLEWMGYISYDGSNNYNPSLRNRISITRDTSKNQFFLKLKSVTTEDTATYFCARGDSNWGQGTTLTVSA VL: not shown
13 | 1010 nM | 0.000996 s⁻¹ | 983 M⁻¹ s⁻¹ | 24.3 nM | 0.000738 s⁻¹ | 30400 M⁻¹ s⁻¹ |  |  | ACI-8033-1F8-Ab1 (antibody, V domains shown) VH: DVQLQESGPGLVKPSQSLSLTCSVTGYSITSGFYWNWIRQFPGNKLEWMGYISYDGSNNYNPSLKNRISIIRDTSKNQFFLKLKSVTSEDTATYYCVRGDVDWGQGTTLTVSS VL: not shown
14 |  | 4.16e-07 s⁻¹ | 6940 M⁻¹ s⁻¹ |  |  |  | 0.06 nM |  | ACI-7067-1113D10-Ab1 (antibody, V domains shown) VH: EVQLVESGGGLVQPKGSLKLSCAASGFTFNTYALHWVRQAPGKGLEWVARIRSKSSNYATYYADSVKDRFTISRDDSQSMLYLQMNNLKTEDTGMYYCVRGGVSPFDYWGQGTTLTVSS VL: QIVLTQSPAIMSASPGEKVTMTCSASSSVSYMHWYQQKSGTSPKRWIYDTSKLASGVPARFSGSGSGTSYSLTISSMEAEDSATYYCQQWSNNPPTFGGGTKLEIK
15 | 24.7 nM | 0.000427 s⁻¹ | 17300 M⁻¹ s⁻¹ | 1.6 nM | 0.00043 s⁻¹ | 264000 M⁻¹ s⁻¹ |  |  | ACI-7079-2501D10-Ab1 (antibody, V domains shown) VH: EVQLVESGGGLVQPKGSLKVSCAASGFTFKTYAMHWVRQAPGKGLEWVARIRSENSNFAKYYADSVKDRFTISRDDSQSMLYLQMNNLKTEDTAMYYCVRGYNGSSLDYWGQGTTLTVSS VL: QIVLTQSPAIMSAFPGERVTMTCSASSSVNYMHWYQQKSGTSPKRWIYDTSKLASGVPARFSGGGSGTSYSLTISNMEAEDAATYYCQQWRSNPPTFGGGTKLEIK
16 |  |  |  |  | 0.26 s⁻¹ | 8.25e+07 M⁻¹ s⁻¹ |  | 3.2 nM | ACI-8033-18D12-Ab1 (antibody, V domains shown) VH: QVQLQQPGAELVKPGASVKMSCKASGYTFTSYWITWVRQRPGQGLDWIGDIYPGGGVTNYNEKFKTKATLTVDTSSSTAYMHLSSLTSEDSAVYFCATAQTTFAHWGQGTLVTVSA VL: DVLMTQTPLSLPVSLGDQASISCRSSQNIAHNNGNTYLEWYLQKPGQSPKLLIYKVSNRFSGVPDRFSGSGSGTDFTLKISRVEAEDLGVYYCFQGSHVPRTFGGGTKLEIK
17 | 27.8 nM | 0.000528 s⁻¹ | 19000 M⁻¹ s⁻¹ | 2.9 nM | 0.00084 s⁻¹ | 291000 M⁻¹ s⁻¹ |  |  | ACI-7079-2501G2-Ab2 (antibody, V domains shown) VH: EVQLVESGGGLVQPKGSLKLSCAASGFNFNTYAMNWVRQAPGKGLEWVARIRTKSNNFATYYAHSVKDRFTISRDDSESMLYLQMNNLKTEDTAMYYCVRQGLAYYAMDYWGQGTSVTVSS VL: DVLMTQTPLSLPVSLGDQVSISCRSSQTIVHSNGNTYLEWYLQKPGQSPKLLIYKVSNRFSGVPDRFSGSGSGTDFTLKISRVEAEDLGVYYCFQGSQGPLTFGAGTKLELK
18 | 9.8 nM | 6.53e-05 s⁻¹ | 6660 M⁻¹ s⁻¹ | 31.9 nM | 0.0327 s⁻¹ | 1.02e+06 M⁻¹ s⁻¹ |  |  | ACI-8033-1A12-Ab1 (antibody, V domains shown) VH: QVHLKQSGADLVRPGASVKLSCKASGYSFTDFYINWVKQTPGQGLEWIARIYPGNNNTFYNEKFKGKATLSAEKSSTTAYMQLSSLTSEDSAVYFCVVGYYGAWGQGTTLTVSS VL: DVVMTQTPLSLPVSLGDQASISCRSSQSLVHSNGNTHLHWYLQKPGQSPKLLIYKVSNRFSGVPDRFSGSGSGTDFTLKISRVEAEDLGFYFCSQSTHVPWTFGGGTKLEIK
19 | 18.7 nM | 0.00245 s⁻¹ | 285000 M⁻¹ s⁻¹ | 6.3 nM | 0.00158 s⁻¹ | 250000 M⁻¹ s⁻¹ |  |  | ACI-7067-1112H8-Ab2 (antibody, V domains shown) VH: EVKLEESGGGLVQPGGSMKLSCAASGFTFTDAWMNWVRQSPEKGLEWIAEIRNKAHNYATYYAESVKGRFDISGDDSKSSVYLQMNNLRVEDTGIYYCTIYSYWGPGTLVTVSA VL: SIVMTQTPKFLLMSPGDRVTMTCTASQSVSNYVAWYQQKPGQSPKLLIYSASNRFTGVPDRFTGSGYGTDFTFTINTVQTEDMAVYFCQQDYTSPYTFGGGTKLEIK
